Two molecules from patent WO2007022015A1 can be followed below.

In assay [1] the target is rodent (mouse) Aβ1-40 (mouse (rodent)) (UniProt P12023). The assay is described as follows: microplate assay on coated human and rodent Aβ1-40 and 1-42.
In assay [2] the target is rodent (mouse) Aβ1-42 (mouse (rodent)) (UniProt P12023). The description is as above.
The target of the next assay is human Aβ1-40 (human) (UniProt P05067). The assay is described as follows: sandwich ELISA, IAlO capture, HRP-14Fl detection, human and mouse Abeta 1-40. In general terms: ELISA stands for enzyme-linked immunosorbent assay.
The next assay concerns the target amyloid β (3-40) (human) (UniProt P05067). The assay is described as follows: sandwich ELISA, IAlO capture, HRP-14Fl detection, Abeta fragment 3-40.
Another assay has as its target amyloid β (2-40) (human) (UniProt P05067). The experiment in a line: sandwich ELISA, IAlO capture, HRP-14Fl detection, Abeta fragment 2-40.

For “Aβ N-terminal-end specific monoclonal antibody 82E1 (printed 82El)”, the cross-reactivity (against human Aβ) in assay [1] and in assay [2] was 10% each time.

B1: 14F1, mouse/human cross-reactive N terminus end-specific anti-Abeta antibody (antibody, V domains shown)
VH: DVHLQASGPDLVRPSQSLSLTCTVTDYSITSDYSWHWIRQFPGNKLEWMGYILFSGSSNFNPSLKSRISITRDTSKNQFFLHLNSVTTEDTATYYCARRAYDGNFSWFAYWGQGTLVTVSA
VL: QAVVTQESALTTSPGETVTLTCRSSAGAVTISNYANWVQEKPDHLFTGLIGGTNNRAPGVPARFSGSLIGDKAALTITGAQTEDEAIYFCALWYGNYWVFGGGTKLTVLG
For the molecule B1, in the assay with human Aβ1-40 (human), the cross reactivity (against mouse Abeta 1-40) turned out to be 50%. For the same molecule, the cross reactivity (against full-length Abeta 1-40) in the assay with amyloid β (3-40) (human) amounted to 0.08%; in the assay with amyloid β (2-40) (human) it was 0.78%.
